Data set [1] has as its system HeLa Kyoto. The data set can be described thus: solubility in G1/S (NP-40 vs SDS abundance) (log2 ratio); higher = more soluble. Particulars: cell cycle stage: G1/S.
For data set [2], the system named is HeLa Kyoto. Description: solubility change mitosis vs G1/S (difference of NP-40 vs SDS log2 ratios) (log2 ratio difference); higher = more soluble in mitosis.
The test system of data set [3] is HeLa Kyoto. Description: thermal stability score vs G1/S (z-score of summed log2 fold changes over temperatures); higher = more thermally stable than in G1/S.
The subject of data set [4] is HeLa Kyoto. Description: melting temperature (median over replicates), in situ; higher = more thermally stable.
[5] abbreviates: cell cycle stage: early G1 (4.5 h after nocodazole release).
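Wherever melting temperature (median over replicates), in situ is given: HeLa Kyoto cells synchronized by double thymidine or nocodazole block, proteins quantified by TMT10plex mass spectrometry, three independent biological replicates.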
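Wherever solubility change mitosis vs G1/S (difference of NP-40 vs SDS log2 ratios) is given: synchronized HeLa Kyoto cells (double thymidine block for G1/S, nocodazole release for mitosis), protein amounts in NP-40 versus SDS lysates quantified by mass spectrometry, three biological replicates.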
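Wherever solubility in G1/S (NP-40 vs SDS abundance) is given: HeLa Kyoto cells arrested at G1/S by double thymidine block, proteins quantified by TMT10plex mass spectrometry in mild NP-40 versus SDS extracts, three biological replicates.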
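Wherever thermal stability score vs G1/S (z-score of summed log2 fold changes over temperatures) is given: synchronized HeLa Kyoto cells, proteins quantified by TMT10plex mass spectrometry, three biological replicates, mitosis taken 0.5 h after nocodazole release, G1/S directly after double thymidine block.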

Regarding “MKEEVKGIPVRVALRCRPLVPKEISEGCQMCLSFVPGEPQVVVGTDKSFTYDFVFDPSTEQEEVFNTAVAPLIKGVFKGYNATVLAYGQTGSGKTYSMGGAYTAEQENEPTVGVIPRVIQLLFKEIDKKSDFEFTLKVSYLEIYNEEILDLLCPSREKAQINIREDPKEGIKIVGLTEKTVLVALDTVSCLEQGNNSRTVASTAMNSQSSRSHAIFTISLEQRKKSDKNSSFRSKLHLVDLAGSERQKKTKAEGDRLKEGININRGLLCLGNVISALGDDKKGGFVPYRDSKLTRLLQDSLGGNSHTLMIACVSPADSNLEETLNTLRYADRARKIKNKPIVNIDPQTAELNHLKQQVQQLQVLLLQAHGGTLPGSITVEPSENLQSLMEKNQSLVEENEKLSRGLSEAAGQTAQMLERIILTEQANEKMNAKLEELRQHAACKLDLQKLVETLEDQELKENVEIICNLQQLITQLSDETVACMAAAIDTAVEQEAQVETSPETSRSSDAFTTQHALRQAQMSKELVELNKALALKEALARKMTQNDSQLQPIQYQYQDNIKELELEVINLQKEKEELVLELQTAKKDANQAKLSERRRKRLQELEGQIADLKKKLNEQSKLLKLKESTERTVSKLNQEIRMMKNQRVQLMRQMKEDAEKFRQWKQKKDKEVIQLKERDRKRQYELLKLERNFQKQSNVLRRKTEEAAAANKRLKDALQKQREVADKRKETQSRGMEGTAARVKNWLGNEIEVMVSTEEAKRHLNDLLEDRKILAQDVAQLKEKKESGENPPPKLRRRTFSLTEVRGQVSESEDSITKQIESLETEMEFRSAQIADLQQKLLDAESEDRPKQRWENIATILEAKCALKYLIGELVSSKIQVSKLESSLKQSKTSCADMQKMLFEERNHFAEIETELQAELVRMEQQHQEKVLYLLSQLQQSQMAEKQLEESVSEKEQQLLSTLKCQDEELEKMREVCEQNQQLLRENEIIKQKLTLLQVASRQKHLPKDTLLSPDSSFEYVPPKPKPSRVKEKFLEQSMDIEDLKYCSEHSVNEHEDGDGDDDEGDDEEWKPTKLVKVSRKNIQGCSCKGWCGNKQCGCRKQKSDCGVDCCCDPTKCRNRQQGKDSLGTVERTQDSEGSFKLEDPTEVTPGLSFFNPVCATPNSKILKEMCDVEQVLSKKTPPAPSPFDLPELKHVATEYQENKAPGKKKKRALASNTSFFSGCSPIEEEAH [KIF4A]”, the “solubility in G1/S (log2)” value in the data set on HeLa Kyoto [1] is 0.00342. The “solubility change mitosis (log2)” value with HeLa Kyoto [2] is 0.00592. In addition, the thermal stability score was 4.91 with HeLa Kyoto [3] (setting [5]) and 8.64 in the data set on HeLa Kyoto [3] (cell cycle stage: mitosis). The melting temperature was 45.7 °C with HeLa Kyoto [4] (cell cycle stage: G1/S) and 48.8 °C with HeLa Kyoto [4] (cell cycle stage: mitosis).
Regarding “MKENKENSSPSVTSANLDHTKPCWYWDKKDLAHTPSQLEGLDPATEARYRREGARFIFDVGTRLGLHYDTLATGIIYFHRFYMFHSFKQFPRYVTGACCLFLAGKVEETPKKCKDIIKTARSLLNDVQFGQFGDDPKEEVMVLERILLQTIKFDLQVEHPYQFLLKYAKQLKGDKNKIQKLVQMAWTFVNDSLCTTLSLQWEPEIIAVAVMYLAGRLCKFEIQEWTSKPMYRRWWEQFVQDVPVDVLEDICHQILDLYSQGKQQMPHHTPHQLQQPPSLQPTPQVPQVQQSQPSQSSEPSQPQQKDPQQPAQQQQPAQQPKKPSPQPSSPRQVKRAVVVSPKEENKAAEPPPPKIPKIETTHPPLPPAHPPPDRKPPLAAALGEAEPPGPVDATDLPKVQIPPPAHPAPVHQPPPLPHRPPPPPPSSYMTGMSTTSSYMSGEGYQSLQSMMKTEGPSYGALPPAYGPPAHLPYHPHVYPPNPPPPPVPPPPASFPPPAIPPPTPGYPPPPPTYNPNFPPPPPRLPPTHAVPPHPPPGLGLPPASYPPPAVPPGGQPPVPPPIPPPGMPPVGGLGRAAWMR [CCNK]”, the “solubility in G1/S (log2)” value in the data set on HeLa Kyoto [1] is -0.035. Also, the “solubility change mitosis (log2)” value with HeLa Kyoto [2] is 0.0659. Moreover, the values for the thermal stability score in the data set with HeLa Kyoto [3] (setting [5]) and with HeLa Kyoto [3] (cell cycle stage: mitosis) were 0.297 and 1.83, respectively. Besides, the melting temperature in the data set on HeLa Kyoto [4] (cell cycle stage: G1/S) is 52.9 °C; in the data set with HeLa Kyoto [4] (cell cycle stage: mitosis) it was 52 °C.

(Values after the supplement of paper PMC5998384.)
